Test results as given in the DeepSol protein solubility set.

Assay: soluble on expression in E. coli; label from the status in PepcDB or PDB records

| Sequence | soluble on expression in E. coli |
| --- | --- |
| MSAFTPASEVLLRHSDDFEQSRILFAGDLQDDLPARLDTAASRAHTQQFHHWQVLSRQMGDNARFSLVATADDVADCDTLIYYWPKNKPEAQFQLMNLLSLLPVGTDIFVVGENRSGVRSAEQMLADYAPLNKVDSARRCGLYFGRLEKQPVFDAEKFWGEYSVDGLTVKTLPGVFSRDGLDVGSQLLLSTLTPHTKGKVLDVGCGAGVLSVAFARHSPKIRLTLCDVSAPAVEASRATLAANGVEGEVFASNVFSEVKGRFDMIISNPPFHDGMQTSLDAAQTLIRGAVRHLNSGGELRIVANAFLPYPDVLDETFGFHEVIAQTGRFKVYRAIMTRQAKKG | soluble |
| DIPFYEQVKASAGHGFLCECKNVTYISLPKALFKYFNVKDLLAITAHGDSMEPVLNDDALLVIDSSKKQIRDGSMYVIRQGDLIRVKLISLDNNGLKLKSYNQSYHDEIYEDYQDVEILGKVIWYSSLCL | not soluble |
| AEEFPVPNGFESAYREVDGVKLHYVKGGQGPLVMLVHGFGQTWYEWHQLMPELAKRFTVIAPDLPGLGQSEPPKTGYSGEQVAVYLHKLARQFSPDRPFDLVAHDIGIWNTYPMVVKNQADIARLVYMEAPIPDARIYRFPAFTAQGESLVWHFSFFAADDRLAETLIAGKERFFLEHFIKSHASNTEVFSERLLDLYARSYAKPHSLNASFEYYRALNESVRQNAELAKTRLQMPTMTLAGGGHGGMGTFQLEQMKAYAEDVEGHVLPGCGHWLPEECAAPMNRLVIDFLSRGRHHHHHH | soluble |
| FNCNKREGPCSQRSLCECDPNLQLGRHSDQLWHYNLRTNRCERGGYRDNCNSHSSSGACVMACERIHHHHHH | soluble |
| MGSDKIHHHHHHMNTRDLDYFRALVDCQNYTMVAKQFAVSQPAVTQAIHRLEKEFAVKLVIQDRRHQQTNITRAGQLLYKNARQIQASLQLAHREIQSTLQTDIRFGLPPIIGTLYFPQIAEKLLQNGLLQQLKITETGSDELLRKLVHGEINIALLGSYLPFDLPTVRAVHLGARPFSIIVSPQNSLAKQAAVSFKNLGQAQFIGLDGKYVHPQAFRAYCDFAGVHPEVIYRTPDISWVKALVKANLGISLLVRDVVKADDGVVCLEIKDQLPVSFNISVVTRAGYLPTTDEQRFIDQLLKMKI | not soluble |
| GPLENWFTEFDIKPLASASIAQVHTARLKDTNQEVVLKVIRPDIRPVIDSDLKLMHRMARIVAGAMPEARRLKPVEVVREYEKTLLDELDLRREAANAIQLRRNFEGSEELYVPEVFPDFS | not soluble |
| MTNDDKCTSFFDKNYQTPEFIENKKRQAQQGRRRFLKSAAGMGALASLPALSVSAKAQTSLNELLKTLVKTDPWLTLDATLNQLLPSSPTGPSASEIRATAYLYQVMTVQPTEQDEKDFILKGVGWLNGYANSEKSANFAQLSFADKEQLLRGISNSTAGQNWLNTLLGYIFQAMLSPASYGGNPDGIGWAWLEHQAGFPMPEKGQRYFELPTRARIDLISRVNYDAKRLASSRNKSHQGTKKS | not soluble |
| MASDNLSAVLYKQNDLRLEQRPIPEPKEDEVLLQMAYVGICGSDVHYYEHGRIADFIVKDPMVIGHEASGTVVKVGKNVKHLKKGDRVAVEPGVPCRRCQFCKEGKYNLCPDLTFCATPPDDGNLARYYVHAADFCHKLPDNVSLEEGALLEPLSVGVHACRRAGVQLGTTVLVIGAGPIGLVSVLAAKAYGAFVVCTARSPRRLEVAKNCGADVTLVVDPAKEEESSIIERIRSAIGDLPNVTIDCSGNEKCITIGINITRTGGTLMLVGMGSQMVTVPLVNACAREIDIKSVFRYCNDYPIALEMVASGRCNVKQLVTHSFKLEQTVDAFEAARKKADNTIKVMISCRQG | soluble |
| KTVPSGQAGQGFAEKGPWKKLGLTYTQKTEIQRIHHNTRAEMDKVLTTEQKEQLKAAMQERQTQRSQGEGRGKWKKDIFTSLNLTDAQKSQIQEIRELSRKQMEAVLTPAQRQQLQQMEQNWKSRRQQGNSN | not soluble |
| MGSDKIHHHHHHMRLKELLPNFLIVHQEVPEDPIAFKSTDKRENENKEITIPELIDTKVPELADGATDTLYGLLVNGHLQTAYGSFRHFDNIYKVQYKRMIIKYPHGGEGTVDFAVNGRSTKRRKVEKEYVPTSQPVFNGNLKRRYSYYSPDDPKLNSDDAKPMLIILHGLTGGSRESYVRAIVHEITTKYDFEACVFNARGCCYSAITTPLLYNGGWTNDIRYCVNDLRKRFPNRKFYMMGFSLGASIMTNYLGEESDRTKIECAISVSNPFDLYNSAYFINSTPMGSRFYSPALGHNLLRMVRNHLSTLEENPDFKDVIEKHLKKIRTVRQFDNLLTGPMFGYKNAEEYYKNASSYKRIPGIRTPFIALHAQDDPIVGGDLPIDQIKSNPYTLLLETSTGGHVGWFKDRSGRRWYAEPLCRFLKIFHDEITVKGLKPDLENVQLPDPNCEPIATTFRAN | not soluble |
| ANNRAEVDTLSPAQAAELKPMPQSWRGVLPCADCEGIETSLFLEKDGTWVMNERYLGAREEPSSFASYGTWARTADKLVLTDSKGEKSYYRAKGDALEMLDREGNPIESQFNYTLEAAQSSLPMTPMTLRGMYFYMADAATFTDCATGKRFMVANNAELERSYLAARGHSEKPVLLSVEGHFTLEGNPDTGAPTKVLAPDTAGKFYPNQDCSSLGQMASMTGGQQMGHHHHHH | soluble |
| MNHQARMRWRCRRGMLELDIVLQRFIDNHYEQLDEHQLELFEMLLSLSDHDLWNIIIGNTKEPNNQFQPVLKLLQENLEHHHHHH | soluble |
| ENALIGVNDHTLVTENDGRRWVTREPAIVYFHKKYWFNIIAMIRETGVSYYCNLASPYILDPEALKYIDYDLDVKVFADGEKRLLDVDEYEQHKAQMNYP | not soluble |
| MVIGQKVLLARIPKMGDNYSTYLLDIEGTVCPISFVKETLFPYFTNKVPQLVQQDTRDSPVSNILSQFHIDNKEQLQAHILELVAKDVKDPILKQLQGYVWAHGYESGQIKAPVYADAIDFIKRKKRVFIYSSGSVKAQKLLFGYVQDPNAPAHDSLDLNSYIDGYFDINTSGKKTETQSYANILRDIGAKASEVLFLSDNPLELDAAAGVGIATGLASRPGNAPVPDGQKYQVYKNFETL | not soluble |
| MGNSHSVTTALHSVLKQREIKVSTRTLETFIKEIERISPWYACSGSLTLSSWEKLREDLAKEQQNGKLKAGTMPLWKLVRSCLEDERCRPAIITGQAILEEAQDSMAETEWCERLGAPKKGKCAQSKKPFQRP | soluble |
| MDALTDSGSDPLLSAALGSPIHHAILSMDDEVDGNCDDVDDISPESHHDNHFIDFTDDLVVQTERNLSKKGRTSNRNARQGYDNYATLTNLQPLPPISTVTSKSTKVQRPSPSPNFYFPTSSNSSYDMKYEEEEDDCEGITHSSSSPSDFSNHGTDLNHPFSASSFDSFDVTTVSTTATSTIMNSTDKFIARIQEADSTTKSPKGTSPAALMHGHCEEDFDDGEELNTKELALQIAAELKRYSIPQAIFAERVLCRSQGTLSDLLRNPKPWSKLKSGRETFRRMAKWLEEPEFQRMSALRLAACKRKEEHTTPNSPQMVVPKKTRLVFSDIQRRTLQAIFRETKRPSREMQITISQQLNLDPTTVANFFMNARRRGHDLKQETSESEERSEEPSIHFEHSASSSSASSSSSSSMQLDNYICDINTINILEEPSPEPREIKYSMQLLENELDFPANILEP | not soluble |
| VHNAGRMVVMKSRPLGEAEAVLDPSSATVDDFSISRGGDTIAYVKMGPTSPPDIYIYRDDNEYRLTDHNAWFAESRSLAEPVRLQVQSPLGGSIDAWILLPPDAGECSGCLPWILYIHGGPKTSYGYAFIHEFQMLASQGFAVIYSNPRGSDGYSEEFADLRGRYGVDDYSELMKVVDEALSDFPQLDPQRGGVTGGSYGGYMTNVIVTKTRRFKAAVTQRSCSNWISFYGESDIGWYFAPELISAQEPWRDLEKYVDFSPLFSVENIETPLLIIHSTEDFRCPLSGAIQLFTALKLKGVETRLLVFPGENHNLSRSGTPKRRVARLRAIASWFKEHLG | not soluble |
| MSFFEQYRTGNLVLPNALFFHFKDIFPSADDFLVWQFLYLQTTTQIGEVASSQIAQATGKTPTEVNKSITTLTEAGLLDFTTVKVNNEIKMVVDASPALAVLDKLVSSENSTTGPVAGQPTNTQLIKQLTDELEQALGILNPMVIEDLNKEIQEEHTDPELIREALKEAVFNRKTNWNYIKGVLRNWKLSGITTKIQVEERRLEHQGKKQHHQVSDEFKTGMDAARQLWGGQ | not soluble |
| MGSDKIHHHHHHMSMNISGLGNAYSGVNTNSKQYKALKEKGWLEGVIQNEAMMSPEGKMIYEIFGGRDTIVNNLMKQFDSDGDLLNANGVAGMDVTGKGTSWQKLTNVSEEYRQKMFDNVKKEFIQENGVSNGDTTKRSDIFKDYQLSVNKDKRLSGTWTLEQYEGQYRSAMYAAVKAANPNWKPGQKFDTSILDNVTRESAEATLVKNGNRLVRNSIDVSV | not soluble |
| MIQNDYSIYQYHVEFEPTVDSKATRENMLRQPSVTVEIGKHFVFDGMILYLKEEWDQNQMIEVQHPNDNSLICIRFKKTNRFLVDDPQTINIFNTIIRRSFDAMKLTQIGRNYFDWDNSRALRKELRSCQNNRQRVQEKMNEVYGGSTIITRYNNKLHRFTRLDNEITPLSKFQKDGEQIILKEYFKNQYDIDITDDEQFIIISEGKPKQPGEPPQVNYIVPELCFPTGLTDEMRKDFKMMKEIAKHTRMSPQQRLDETRKLITKLSQNQTMMECFQYWGISLGQDLANVQARVLKSEPLQGKRQYEGKQAEWARGVKECGIYRGSNMTNWIVIGPGSGNSGLLAQKFIAEARNLGRTLQVQLGEPMCVKINGISPNDYLEGLKAAIKSVDGEEIHMLVVMLADDNKTRYDSLKKYLCVECPIPNQCVNLRTLAGKSKDGGENKNLGSIVLKIVLQMICKTGGALWKVNIPLKSTMIVGYDLYHDSTLKGKTVGACVSTTSNDFTQFYSQTRPHENPTQLGNNLTHFVRKSLKQYYDNNDKTLPSRLILYRDGAGDGQIPYIKNTEVKLVRDACDAVTDKAAELSNKVQEKIKLAFIIVTKRVNMRILKQGSSSKSAINPQPGTVVDTTVTRPERMDFYLVPQFVNQGTVTPVSYNIIHDDTGLGPDKHQQLAFKLCHLYYNWQGTVRVPAPCQYAHKLAFLTAQSLHDDANGYLRDKLFFL | not soluble |
| VQLLESGPGLVKPAQTLSLSCAVSGGSIRSGGYYWSWIRQHPGKGLEWIGYIYHSGNTYYNPSLKSRIAMSVDTSENKFSLRLNSVTAADTAVYYCARLDGYTLDIWGQGTLVTVSSSTKGPSVFPLAPSSKSTSGGTAALGCLVKDYFPEPVTVSWNSGALTSGVHTFPAVLQSSGLYSLSSVVTVPSSSLGTQTYICNVNHKPSNTKVDKRVEP | soluble |
| MAHHHHHHMTALERYAFKVDYCDPQANLVRQYLLLYFAEDSTIEMHDLKTKRVFLKRCAYPSLTPRELFIGATVGVFSRSLKLVDYGDEVTRRHFSGSEAEFVVFIQEGGLCHMGSIIDRMHTWELRITNIRLVDLPDSLCRDLGVSRRCVAILFKGSNAIEKVGGLSTEFPNMTVVVAEPSDVNSVRGAAFGPGGTTAVMKNCSVCVIKPHAIMSGYQGAIIQRLIDEGFHITALGMYSLTVADAEDFLEVYNGVVPEYQRLVEQMSSGPCWAVQVCAENSVSALRAICGPHDPDVCHVLFPHTIRSKYGVDRTRNGVHCTDLEEDAPLESEFFFSLLQNA | not soluble |
| MGSDKIHHHHHHMLLHLSTWQEVEAYLQQSKGIIFPIGSTEQHGPTGLIGTDAICAEAIAAGVGDATGAIVGPTINVGMALHHTAFPGTISLRPSTLIQVVRDYVTCLAKAGFSKFYFINGHGGNIATLKAAFSETYAHLEDLQIANAQQVQCQVANWFMCGSVYKLAKELYGDQEGSHATPSEVALTQYVYPEAIKQAPLSPEVASGHRIYSAADFRVRYPDGRMGSNPGLATPEHGKQFYDLAVKELSNGYLEFVNAD | not soluble |
